For assay [1], the target named is T1, recombinant type-2 Shiga toxin (Stx2) holotoxin (E. coli EHEC O157: H7), P09385.
T1 chain 1: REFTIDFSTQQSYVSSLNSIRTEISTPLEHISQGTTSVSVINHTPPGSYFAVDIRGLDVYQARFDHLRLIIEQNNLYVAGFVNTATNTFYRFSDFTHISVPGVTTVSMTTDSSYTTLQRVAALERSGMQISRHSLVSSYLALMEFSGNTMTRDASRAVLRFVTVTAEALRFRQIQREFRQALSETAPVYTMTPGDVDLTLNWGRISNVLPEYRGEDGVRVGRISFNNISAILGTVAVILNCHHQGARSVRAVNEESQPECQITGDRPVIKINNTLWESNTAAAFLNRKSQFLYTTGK
T1 chain 2: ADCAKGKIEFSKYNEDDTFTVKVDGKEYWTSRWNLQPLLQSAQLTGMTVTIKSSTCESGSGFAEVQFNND

Assay [2] addresses T2, recombinant Stx2B (B subunit of type-2 Shiga toxin) (E. coli EHEC O157: H7), P09386.
T2 chain: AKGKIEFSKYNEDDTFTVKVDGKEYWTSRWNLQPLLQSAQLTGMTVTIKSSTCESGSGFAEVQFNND

Broadly, the Kd is a measure of binding affinity in units of concentration. Consider WAPWYSFTSYHL (modifications not checked) [polypeptide WA8], for which the Kd in assay [1] came to 24.8 µM. The blocking rate of binding between FITC-Stx2B and HeLa cells in assay [2] worked out at 24.8%.
Regarding TFNMWLPTFNQW (modifications not checked) [polypeptide TF1], the Kd in assay [1] amounted to 1.25 µM. In assay [2], the percent of HeLa cells showing fluorescence came to 52.8%; the percent of binding between FITC-Stx2B and HeLa cells blocked was determined as 45.7%.

For the origin of these results see patent publication US8946384.
